In article PMC12098869, “An mRNA-display derived cyclic peptide scaffold reveals the substrate binding interactions of an N-terminal cysteine oxidase” (Nature Communications, 2025) one finds Kd data, which are given here for two molecules.

Holding throughout (conditions): both partners purified
For test [1], the target named is T1, ADO-D206E, N-terminally His-tagged and biotinylated (human, UniProt Q96SZ5 1-270, D206E, biotin (biotinylated during expression)).
T1 construct: 2-aminoethanethiol dioxygenase (ADO), human, UniProt Q96SZ5, full length, site-directed mutant; source: E. coli Rosetta2(DE3), purified (Ni-NTA, SEC); not shown: biotinylation tag (from the vector pQE80L-Navi), N-terminal, kept
T1 sequence (looked up): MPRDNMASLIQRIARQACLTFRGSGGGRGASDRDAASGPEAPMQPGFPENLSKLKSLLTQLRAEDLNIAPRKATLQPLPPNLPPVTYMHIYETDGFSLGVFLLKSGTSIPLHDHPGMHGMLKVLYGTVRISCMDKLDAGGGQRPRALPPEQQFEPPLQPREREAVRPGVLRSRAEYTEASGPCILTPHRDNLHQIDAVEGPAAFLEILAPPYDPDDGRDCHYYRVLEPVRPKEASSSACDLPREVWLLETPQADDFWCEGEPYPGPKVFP
Put plainly: SPR; biotinylated ADO or ADO mutant immobilised on a Biotin CAP chip (~2500-3000 RU), substrate peptide injected; Biacore T200, 4 °C; 20 mM HEPES pH 7.5, 500 mM NaCl, 10 mM DTT, 0.1% tween-20; 50 µL/minute; multi-cycle or single-cycle mode not given; each cell is one of three independent measurements. On the technique in general: Surface plasmon resonance follows binding to a sensor surface in real time, without labels.

The target of test [2] is T2, ADO-I109A, N-terminally His-tagged and biotinylated (human, UniProt Q96SZ5 1-270, I109A, biotin (biotinylated during expression)).
T2 construct: 2-aminoethanethiol dioxygenase (ADO), human, UniProt Q96SZ5, full length, site-directed mutant; source: E. coli Rosetta2(DE3), purified (Ni-NTA, SEC); not shown: biotinylation tag (from the vector pQE80L-Navi), N-terminal, kept
T2 sequence (looked up): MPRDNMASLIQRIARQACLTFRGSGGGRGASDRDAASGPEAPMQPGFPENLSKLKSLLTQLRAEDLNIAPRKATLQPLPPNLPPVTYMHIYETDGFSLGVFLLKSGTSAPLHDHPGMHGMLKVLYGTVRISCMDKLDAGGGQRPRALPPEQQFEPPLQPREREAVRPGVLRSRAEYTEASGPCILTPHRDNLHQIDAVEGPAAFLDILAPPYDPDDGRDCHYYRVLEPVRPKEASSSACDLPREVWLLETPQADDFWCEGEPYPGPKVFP
The description is as above.

Test [3] deals with T3, ADO-Y212F, N-terminally His-tagged and biotinylated (human, UniProt Q96SZ5 1-270, Y212F, biotin (biotinylated during expression)).
T3 construct: 2-aminoethanethiol dioxygenase (ADO), human, UniProt Q96SZ5, full length, site-directed mutant; source: E. coli Rosetta2(DE3), purified (Ni-NTA, SEC); not shown: biotinylation tag (from the vector pQE80L-Navi), N-terminal, kept
T3 sequence (looked up): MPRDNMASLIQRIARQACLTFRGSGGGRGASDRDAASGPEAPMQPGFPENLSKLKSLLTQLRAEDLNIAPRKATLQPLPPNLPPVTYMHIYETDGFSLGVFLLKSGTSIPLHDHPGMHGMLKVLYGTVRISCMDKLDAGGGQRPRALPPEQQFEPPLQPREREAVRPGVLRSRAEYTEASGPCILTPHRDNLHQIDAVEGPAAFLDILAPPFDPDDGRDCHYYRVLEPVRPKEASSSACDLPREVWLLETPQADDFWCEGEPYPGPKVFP
The test is described as above.

Test [4] concerns the target T4, ADO-Y87F, N-terminally His-tagged and biotinylated (human, UniProt Q96SZ5 1-270, Y87F, biotin (biotinylated during expression)).
T4 construct: 2-aminoethanethiol dioxygenase (ADO), human, UniProt Q96SZ5, full length, site-directed mutant; source: E. coli Rosetta2(DE3), purified (Ni-NTA, SEC); not shown: biotinylation tag (from the vector pQE80L-Navi), N-terminal, kept
T4 sequence (looked up): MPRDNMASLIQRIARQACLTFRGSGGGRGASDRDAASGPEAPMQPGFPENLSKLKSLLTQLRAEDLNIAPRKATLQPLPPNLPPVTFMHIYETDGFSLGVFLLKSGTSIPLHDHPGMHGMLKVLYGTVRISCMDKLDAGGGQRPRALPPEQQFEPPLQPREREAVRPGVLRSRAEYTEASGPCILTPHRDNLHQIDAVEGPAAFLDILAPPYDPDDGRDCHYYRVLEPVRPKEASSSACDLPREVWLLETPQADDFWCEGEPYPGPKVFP
The test is described as above.

For test [5], the target named is T5, ADO-F256A, biotinylated (pQE80L-Navi-ADO) (human, UniProt Q96SZ5 1-270, F256A, biotin on the Avi tag).
T5 construct: Tag as in Dm1; source: E. coli Rosetta2(DE3), purified (Ni-NTA, SEC); not shown: Avi tag, N-terminal, kept; His6, N-terminal, kept
T5 sequence (looked up): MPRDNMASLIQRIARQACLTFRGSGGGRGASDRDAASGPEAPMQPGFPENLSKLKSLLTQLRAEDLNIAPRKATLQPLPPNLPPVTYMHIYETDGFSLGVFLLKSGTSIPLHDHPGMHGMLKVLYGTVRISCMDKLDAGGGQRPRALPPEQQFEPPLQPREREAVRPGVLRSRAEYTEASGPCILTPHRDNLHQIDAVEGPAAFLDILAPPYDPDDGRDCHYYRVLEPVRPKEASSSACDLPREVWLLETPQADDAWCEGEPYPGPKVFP
The test is described as follows: SPR; single-cycle kinetics (SCK), 1:1 binding model; biotinylated ADO or variant immobilised on a Biotin CAP chip, peptide injected at 25.6, 64, 160, 400, 1000 nM; 4 °C; 20 mM HEPES pH 7.5, 500 mM NaCl, 10 mM DTT, 0.1% (v/v) tween-20; 50 μL/minute.

The target of test [6] is T6, ADO-D206E, biotinylated (pQE80L-Navi-ADO) (human, UniProt Q96SZ5 1-270, D206E, biotin on the Avi tag).
T6 construct: Tag as in Dm1; source: E. coli Rosetta2(DE3), purified (Ni-NTA, SEC); not shown: Avi tag, N-terminal, kept; His6, N-terminal, kept
T6 sequence (looked up): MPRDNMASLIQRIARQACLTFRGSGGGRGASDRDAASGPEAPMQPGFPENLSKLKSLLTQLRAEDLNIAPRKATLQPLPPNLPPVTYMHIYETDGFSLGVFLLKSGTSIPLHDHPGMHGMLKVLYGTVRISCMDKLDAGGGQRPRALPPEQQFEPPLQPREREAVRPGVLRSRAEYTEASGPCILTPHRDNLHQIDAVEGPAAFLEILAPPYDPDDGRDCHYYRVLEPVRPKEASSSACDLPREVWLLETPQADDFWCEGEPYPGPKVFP
The test is described as above.

Values joined by “and” are separate entries in the source; they are usually repeats but may differ in a detail not shown here. Equal values may be shown once.

In general, Kd refers to the free concentration of one partner at which half of the binding sites on the other are occupied at equilibrium, for simple one-to-one binding. Read a high Kd as lower affinity.

B1: RGS5(2-15), synthetic peptide corresponding to the methionine excised N-terminus of RGS5, residues 2 to 15 (peptide, UniProt O15539 2-15, looked up)
peptide: CKGLAALPHSCLER
notes: regulator of G-protein signalling 5 (RGS5), residues 2 to 15 (N-terminal Cys exposed); UniProt O15539 is printed for the full-length human protein; also called 14-mer RGS5; source: synthetic peptide
On to B1, for which the dissociation constant Kd in test [1] is 1190 nM and 997 nM and 1060 nM; in test [2], 1120 nM and 1240 nM and 1430 nM; in test [3] it was 19800 nM and 24500 nM and 29200 nM; in test [4], 339 nM (2×) and 336 nM.

B2: RGS5_(2-15), synthetic peptide corresponding to the methionine excised N-terminus of RGS5, residues 2 to 15 (peptide, UniProt O15539 2-15, looked up)
peptide: CKGLAALPHSCLER
notes: Regulator of G-protein signalling 5 (RGS5), residues 2 to 15, N-terminal Cys; also called RGS5 peptide; source: synthetic peptide
Take B2: the figures for the equilibrium dissociation constant (Kd) in test [5] and in test [6] were 730 nM and 1100 nM, respectively.
